Tests used:
Conditions in all cases: protein: recombinant; tags: His6-SUMO removed by Ulp1
[1] = molecular target: hYBX2 CSD 85-177 (crystal) (human, UniProt Q9Y2T7 85-177, I92T;Q93K); test: crystal structure; ITC: 25 C, iTC200, buffer not stated (protein stock 10 mM Tris-HCl pH 8.0, 100 mM NaCl, 1 mM DTT); EMSA: 50 mM Tris-HCl pH 7.5, 100 mM NaCl, 0.4 mM EDTA, 0.1% NP-40, 1 mM DTT, 50% glycerol, BSA, on ice, 0.2% glutaraldehyde; pull-down: 100 mM NaCl, 10 mM Tris-HCl pH 7.6, 2 mM EDTA, 0.5% NP-40, 4 C
hYBX2 CSD W100F (ITC) = hYBX2 CSD W100F (ITC) (human, UniProt Q9Y2T7 85-177, I92T;Q93K;W100F); test: ITC; ITC: 25 C, iTC200, buffer not stated (protein stock 10 mM Tris-HCl pH 8.0, 100 mM NaCl, 1 mM DTT); EMSA: 50 mM Tris-HCl pH 7.5, 100 mM NaCl, 0.4 mM EDTA, 0.1% NP-40, 1 mM DTT, 50% glycerol, BSA, on ice, 0.2% glutaraldehyde; pull-down: 100 mM NaCl, 10 mM Tris-HCl pH 7.6, 2 mM EDTA, 0.5% NP-40, 4 C
[2] = molecular target: hYBX2 CSD I92T/Q93K (called wild-type in ITC) (human, UniProt Q9Y2T7 85-177, I92T;Q93K); test: as above
[3] = molecular target: hYBX2 CSD W100F/Y173F (ITC) (human, UniProt Q9Y2T7 85-177, I92T;Q93K;W100F;Y173F); test: as above
[4] = molecular target: hYBX2 CSD 85-165 (crystal) (human, UniProt Q9Y2T7 85-165, I92T;Q93K); test: crystal structure; ITC: 25 C, iTC200, buffer not stated (protein stock 10 mM Tris-HCl pH 8.0, 100 mM NaCl, 1 mM DTT); EMSA: 50 mM Tris-HCl pH 7.5, 100 mM NaCl, 0.4 mM EDTA, 0.1% NP-40, 1 mM DTT, 50% glycerol, BSA, on ice, 0.2% glutaraldehyde; pull-down: 100 mM NaCl, 10 mM Tris-HCl pH 7.6, 2 mM EDTA, 0.5% NP-40, 4 C
Chain of hYBX2 CSD 85-165 (crystal) (Q9Y2T7 85-165 I92T/Q93K): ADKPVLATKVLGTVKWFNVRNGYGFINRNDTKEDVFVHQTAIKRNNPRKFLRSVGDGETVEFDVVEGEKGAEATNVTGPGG

Chain of hYBX2 CSD 85-177 (crystal) (Q9Y2T7 85-177 I92T/Q93K): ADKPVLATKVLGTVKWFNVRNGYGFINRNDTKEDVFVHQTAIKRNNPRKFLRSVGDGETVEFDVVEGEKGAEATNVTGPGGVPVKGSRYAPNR
Chain of hYBX2 CSD I92T/Q93K (called wild-type in ITC) (Q9Y2T7 85-177 I92T/Q93K): as above
Chain of hYBX2 CSD W100F (ITC) (Q9Y2T7 85-177 I92T/Q93K/W100F): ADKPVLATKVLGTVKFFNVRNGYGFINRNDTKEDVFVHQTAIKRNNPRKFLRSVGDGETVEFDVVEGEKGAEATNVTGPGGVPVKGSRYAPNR
Chain of hYBX2 CSD W100F/Y173F (ITC) (Q9Y2T7 85-177 I92T/Q93K/W100F/Y173F): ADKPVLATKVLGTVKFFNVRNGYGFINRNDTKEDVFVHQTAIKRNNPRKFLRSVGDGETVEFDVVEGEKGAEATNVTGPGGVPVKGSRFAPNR

Binder | binding result [1] | Kd (hYBX2 CSD W100F (ITC)) [nM] | Kd [2] [nM] | Kd [3] [nM] | binding result [4]
GUCUC (ssRNA, m5C at positions 3 and 5) [GU(m5C)U(m5C)] | binds | – | – | – | –
UCAUCUCU (ssRNA) [ITC unme-C RNA] | – | 2590 ± 120 | 710 ± 60 | 7260 ± 240 | –
UCAUCUCU (ssRNA, m5C at position 5) [ITC m5C RNA UCAU(m5C)UCU] | – | 2340 ± 90 | 220 ± 20 | 6330 ± 520 | –
UCAUCUU (ssRNA, m5C at position 5) [UCAU(m5C)UU] | binds | – | – | – | –
UCAUCU (ssRNA, m5C at position 5) [UCAU(m5C)U] | binds | – | – | – | binds

— article PMC11197489, “RNA 5-methylcytosine regulates YBX2-dependent liquid-liquid phase separation”
